Measured values as given in article PMC7038996.
Changes are numbered by the printed parent chain. Where two headings read alike, the source gives them in different places.

Tests used:
GST-APE1 WT [1] = biological target: T1, GST-APE1 WT (Xenopus laevis, UniProt Q6IP62 1-316); assay: EMSA
T1 sequence: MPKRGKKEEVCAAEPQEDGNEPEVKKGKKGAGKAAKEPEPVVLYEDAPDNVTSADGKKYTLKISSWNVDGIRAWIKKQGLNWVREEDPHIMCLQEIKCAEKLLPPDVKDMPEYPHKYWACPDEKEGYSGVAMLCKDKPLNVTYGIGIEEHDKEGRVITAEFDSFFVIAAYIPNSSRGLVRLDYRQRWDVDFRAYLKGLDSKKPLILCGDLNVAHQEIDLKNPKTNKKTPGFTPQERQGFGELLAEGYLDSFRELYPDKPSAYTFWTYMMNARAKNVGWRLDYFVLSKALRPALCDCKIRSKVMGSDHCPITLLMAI

GST-APE1 DA = biological target: T2, GST-APE1 DA (Xenopus laevis, UniProt Q6IP62 1-316, D306A); assay: EMSA
T2 sequence: T1 sequence with D306A

GST-APE1 F264Y = biological target: T3, GST-APE1 F264Y (Xenopus laevis, UniProt Q6IP62 1-316, F264Y); assay: EMSA
T3 sequence: T1 sequence with F264Y

GST-APE1 F264L = biological target: T4, GST-APE1 F264L (Xenopus laevis, UniProt Q6IP62 1-316, F264L); assay: EMSA
T4 sequence: T1 sequence with F264L

GST-APE1 CA = biological target: T5, GST-APE1 CA (Xenopus laevis, UniProt Q6IP62 1-316, C92A;C98A); assay: EMSA
T5 sequence: T1 sequence with C92A, C98A

Myc-APE2 = biological target: T6, Myc-APE2 (UniProt Q6DDT4 1-517); assay: pull-down
T6 sequence: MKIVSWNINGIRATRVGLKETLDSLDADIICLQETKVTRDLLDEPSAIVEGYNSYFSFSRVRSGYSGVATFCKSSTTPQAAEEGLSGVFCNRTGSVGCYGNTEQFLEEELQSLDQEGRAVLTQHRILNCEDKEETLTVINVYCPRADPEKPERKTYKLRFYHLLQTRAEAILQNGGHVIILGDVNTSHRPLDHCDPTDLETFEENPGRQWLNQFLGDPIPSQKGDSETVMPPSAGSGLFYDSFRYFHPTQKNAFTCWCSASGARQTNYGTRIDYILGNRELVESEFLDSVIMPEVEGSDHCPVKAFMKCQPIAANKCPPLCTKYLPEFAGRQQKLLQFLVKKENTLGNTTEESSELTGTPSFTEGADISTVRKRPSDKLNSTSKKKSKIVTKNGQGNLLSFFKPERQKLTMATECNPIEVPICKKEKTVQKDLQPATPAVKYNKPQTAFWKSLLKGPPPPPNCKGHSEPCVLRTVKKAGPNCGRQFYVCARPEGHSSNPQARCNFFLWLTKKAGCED

GST-APE1 WT [2] = biological target: T1, GST-APE1 WT; assay: EMSA; remark: listed apart in the source

B1: dsDNA-SSB (dsDNA)
DNA 1: TCGGTACCCGGGGATCCTCTAGAGTCGACC
DNA 2: TGCAGGCATGCAAGCTTGGCGTAATCATGGTCATAGCTGT
DNA 3: ACAGCTATGACCATGATTACGCCAAGCTTGCATGCCTGCAGGTCGACTCTAGAGGATCCCCGGGTACCGA
modifications: nick between nt 30 and 31 of S1 (Nt.BstNBI, …^); CIP-treated
GST-APE1 WT [1]
  binding result: binds
GST-APE1 DA
  binding result: no binding
GST-APE1 F264Y
  binding result: no binding
GST-APE1 F264L
  binding result: no binding
GST-APE1 CA
  binding result: no binding

B2: biotin-dsDNA (dsDNA)
DNA 1: TCGGTACCCGGGGATCCTCTAGAGTCGACCTGCAGGCATGCAAGCTTGGCGTAATCATGGTCATAGCTGT
DNA 2: B1 DNA 3
Myc-APE2
  binding result: no binding

B3: biotin-dsDNA-SSB (dsDNA)
DNA 1: B1 DNA 1
DNA 2: B1 DNA 2
DNA 3: B1 DNA 3
modifications: nick by Nt.BstNBI; CIP-treated
Myc-APE2
  binding result: binds

B4: dsDNA (70 bp) (dsDNA)
DNA 1: B2 DNA 1
DNA 2: B1 DNA 3
GST-APE1 WT [2]
  binding result: no binding
